From US20100323375

Assays:
[1] = target: T1, FLAG-Alcbeta
T1 chain 1: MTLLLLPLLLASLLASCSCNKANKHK
T1 chain 2: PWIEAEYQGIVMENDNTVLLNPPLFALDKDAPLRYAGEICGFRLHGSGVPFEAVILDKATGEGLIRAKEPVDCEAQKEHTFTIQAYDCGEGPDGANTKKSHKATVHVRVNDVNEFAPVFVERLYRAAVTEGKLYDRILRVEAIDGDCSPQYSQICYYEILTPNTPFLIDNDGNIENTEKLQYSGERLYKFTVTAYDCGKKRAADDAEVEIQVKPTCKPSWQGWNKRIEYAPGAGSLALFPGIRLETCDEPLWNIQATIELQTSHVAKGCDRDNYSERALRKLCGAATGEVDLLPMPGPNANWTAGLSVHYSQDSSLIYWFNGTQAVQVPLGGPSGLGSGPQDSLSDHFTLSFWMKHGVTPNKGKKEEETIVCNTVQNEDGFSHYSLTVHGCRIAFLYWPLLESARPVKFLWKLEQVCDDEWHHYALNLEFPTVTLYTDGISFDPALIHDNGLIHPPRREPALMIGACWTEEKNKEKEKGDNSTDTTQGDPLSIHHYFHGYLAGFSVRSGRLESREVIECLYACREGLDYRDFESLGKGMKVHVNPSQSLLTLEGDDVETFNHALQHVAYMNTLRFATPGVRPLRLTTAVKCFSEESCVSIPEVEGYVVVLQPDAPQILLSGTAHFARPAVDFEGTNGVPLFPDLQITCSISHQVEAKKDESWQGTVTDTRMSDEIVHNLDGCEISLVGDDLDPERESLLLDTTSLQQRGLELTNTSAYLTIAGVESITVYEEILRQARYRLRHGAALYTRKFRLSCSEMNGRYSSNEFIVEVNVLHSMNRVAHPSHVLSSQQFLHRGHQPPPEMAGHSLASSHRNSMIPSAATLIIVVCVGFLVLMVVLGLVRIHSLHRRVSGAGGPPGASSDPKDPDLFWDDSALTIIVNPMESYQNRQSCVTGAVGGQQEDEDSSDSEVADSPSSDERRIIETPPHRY

[2] = target: T2, FLAG-Alcalpha
T2 chain 1: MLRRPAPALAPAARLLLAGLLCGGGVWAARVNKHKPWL
T2 chain 2: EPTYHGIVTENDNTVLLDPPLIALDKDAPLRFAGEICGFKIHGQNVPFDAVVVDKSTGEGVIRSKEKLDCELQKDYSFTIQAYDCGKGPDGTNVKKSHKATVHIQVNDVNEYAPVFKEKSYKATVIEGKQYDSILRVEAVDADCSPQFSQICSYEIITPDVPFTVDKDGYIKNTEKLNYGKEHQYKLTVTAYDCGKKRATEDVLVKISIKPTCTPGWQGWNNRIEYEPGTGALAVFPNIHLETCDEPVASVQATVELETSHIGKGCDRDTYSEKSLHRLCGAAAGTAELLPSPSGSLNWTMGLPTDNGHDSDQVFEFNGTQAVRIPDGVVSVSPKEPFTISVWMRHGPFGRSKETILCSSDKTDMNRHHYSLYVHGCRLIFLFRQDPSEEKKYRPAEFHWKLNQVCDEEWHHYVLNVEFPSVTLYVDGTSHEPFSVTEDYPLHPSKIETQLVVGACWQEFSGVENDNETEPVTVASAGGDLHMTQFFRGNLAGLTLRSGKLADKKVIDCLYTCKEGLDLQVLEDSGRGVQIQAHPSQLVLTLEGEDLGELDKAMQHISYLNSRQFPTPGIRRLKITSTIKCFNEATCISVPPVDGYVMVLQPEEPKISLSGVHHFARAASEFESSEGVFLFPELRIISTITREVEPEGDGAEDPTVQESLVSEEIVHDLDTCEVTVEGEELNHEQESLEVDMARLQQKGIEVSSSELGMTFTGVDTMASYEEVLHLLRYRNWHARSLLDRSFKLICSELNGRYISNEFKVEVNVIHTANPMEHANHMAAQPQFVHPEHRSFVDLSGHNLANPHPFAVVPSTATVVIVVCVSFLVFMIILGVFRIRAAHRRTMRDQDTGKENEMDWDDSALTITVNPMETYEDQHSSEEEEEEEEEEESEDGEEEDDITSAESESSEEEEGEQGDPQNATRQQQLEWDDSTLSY

[3] = target: T3, FLAG-Alcgamma
T3 chain 1: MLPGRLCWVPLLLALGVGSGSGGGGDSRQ
T3 chain 2: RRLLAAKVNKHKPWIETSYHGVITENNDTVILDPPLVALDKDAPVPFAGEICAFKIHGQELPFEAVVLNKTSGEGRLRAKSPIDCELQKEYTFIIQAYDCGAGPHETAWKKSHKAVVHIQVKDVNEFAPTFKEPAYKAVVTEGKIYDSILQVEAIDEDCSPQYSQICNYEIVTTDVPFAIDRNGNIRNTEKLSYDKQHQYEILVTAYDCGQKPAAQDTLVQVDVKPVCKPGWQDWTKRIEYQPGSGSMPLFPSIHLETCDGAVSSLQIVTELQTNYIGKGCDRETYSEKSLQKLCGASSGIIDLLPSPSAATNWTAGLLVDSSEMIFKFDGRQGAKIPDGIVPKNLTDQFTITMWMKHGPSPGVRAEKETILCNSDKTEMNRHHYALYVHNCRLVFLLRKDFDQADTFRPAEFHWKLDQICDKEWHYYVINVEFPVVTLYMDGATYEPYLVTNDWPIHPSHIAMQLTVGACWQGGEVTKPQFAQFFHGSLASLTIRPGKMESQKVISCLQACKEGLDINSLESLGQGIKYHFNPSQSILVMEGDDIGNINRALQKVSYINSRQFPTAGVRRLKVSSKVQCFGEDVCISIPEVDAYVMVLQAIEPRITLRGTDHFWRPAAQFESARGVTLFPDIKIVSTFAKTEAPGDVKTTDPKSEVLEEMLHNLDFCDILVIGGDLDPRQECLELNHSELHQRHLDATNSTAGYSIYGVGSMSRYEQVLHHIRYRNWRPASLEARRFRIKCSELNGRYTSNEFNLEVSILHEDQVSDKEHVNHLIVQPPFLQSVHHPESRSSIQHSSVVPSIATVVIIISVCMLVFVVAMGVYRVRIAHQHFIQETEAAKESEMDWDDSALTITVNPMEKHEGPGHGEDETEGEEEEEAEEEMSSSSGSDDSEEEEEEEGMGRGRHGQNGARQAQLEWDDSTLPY

[4] = target: FLAG-APP, P05067
Sequence of FLAG-APP, P05067 (P05067 whole entry, looked up): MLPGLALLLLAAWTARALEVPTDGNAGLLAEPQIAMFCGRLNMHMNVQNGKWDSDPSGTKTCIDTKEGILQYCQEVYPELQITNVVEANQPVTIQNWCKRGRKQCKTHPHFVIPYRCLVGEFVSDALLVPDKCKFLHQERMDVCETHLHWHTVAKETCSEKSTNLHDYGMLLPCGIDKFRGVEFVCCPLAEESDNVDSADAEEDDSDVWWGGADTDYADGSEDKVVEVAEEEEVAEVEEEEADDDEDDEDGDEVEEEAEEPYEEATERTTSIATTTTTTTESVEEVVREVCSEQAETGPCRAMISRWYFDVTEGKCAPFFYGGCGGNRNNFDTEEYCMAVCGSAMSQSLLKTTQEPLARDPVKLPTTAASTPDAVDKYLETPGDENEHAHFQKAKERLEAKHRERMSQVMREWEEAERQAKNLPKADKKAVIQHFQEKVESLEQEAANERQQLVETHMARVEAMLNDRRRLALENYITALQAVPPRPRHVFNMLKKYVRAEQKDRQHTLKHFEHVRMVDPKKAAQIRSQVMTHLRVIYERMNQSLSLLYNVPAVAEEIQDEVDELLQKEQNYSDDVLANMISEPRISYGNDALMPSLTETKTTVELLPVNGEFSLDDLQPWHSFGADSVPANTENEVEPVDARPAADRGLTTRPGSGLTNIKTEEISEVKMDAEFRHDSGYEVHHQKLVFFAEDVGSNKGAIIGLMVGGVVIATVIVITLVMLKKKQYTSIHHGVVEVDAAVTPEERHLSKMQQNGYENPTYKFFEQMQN

B1: ADAM10 (endogenous, mouse embryonic fibroblasts) (protein)
chain: TTLAERNTCQLYIQTDHLFFKYYGTREAVIAQISSHVKAIDTIYQTTDFSGIRNISFMVKRIRINTTSDEKDPTNPFRFPNIGVEKFLELNSEQNHDDYCLAYVFTDRDFDDGVLGLAWVGAPSGSSGGICEKSKLYSDGKKKSLNTGIITVQNYGSHVPPKVSHITFAHEVGHNFGSPHDSGTECTPGESKNLGQKENGNYIMYARATSGDKLNNNKFSLCSIRNISQVLEKKRNNCFVESGQPICGNGMVEQGEECDCGYSDQCKDDCCFDANQPEGKKCKLKPGKQCSPSQGPCCTAQCAFKSKSEKCRDDSDCAKEGICNGFTALCPASDPKPNFTDCNRHTQVCINGQCAGSICEKYDLEECTCASSDGKDDKELCHVCCMKKMAPSTCASTGSLQWSKQFSGRTITLQPGSPCNDFRGYCDVFMRCRLVDADGPLARLKKAIFSPQLYENIAEWIVAHWWAVLLMGIALIMLMAGFIKICSVHTPSSNPKLPPPKPLPGTLKRRRPPQPIQQPPRQRPRESYQMGHMRR
amount of sAlcbeta secreted into the medium (western blot of anti-FLAG immunoprecipitate), ADAM10 (-/-) against (+/-) MEFs [1]: The amounts of sAlcalpha, sAlcbeta, and sAlcgamma secreted by ADAM (-/-) MEFs were as low as that of APP | amount of sAlcalpha secreted into the medium (western blot of anti-FLAG immunoprecipitate), ADAM10 (-/-) against (+/-) MEFs [2]: The amounts of sAlcalpha, sAlcbeta, and sAlcgamma secreted by ADAM (-/-) MEFs were as low as that of APP | amount of sAlcgamma secreted into the medium (western blot of anti-FLAG immunoprecipitate), ADAM10 (-/-) against (+/-) MEFs [3]: The amounts of sAlcalpha, sAlcbeta, and sAlcgamma secreted by ADAM (-/-) MEFs were as low as that of APP | amount of sAPP secreted into the medium (western blot of anti-FLAG immunoprecipitate), ADAM10 (-/-) against (+/-) MEFs [4]: ADAM (-/-) MEFs secreted sAPP (lane 2 of FIG. 1D) 40% lower than ADAM (+/-) MEFs
